Measurements: patent US20110263454A1, “Methods of Identifying Functional Characteristics of Promoters, Transcription Modifying Proteins and Transcription Modulating Agents” (Salk Institute for Biological Studies, priority 2008, published 2011)

B1: FXR: Farnesoid X Receptor (NR1H4), cDNA driver (protein, UniProt Q96RI1 1-486, looked up)
Bile acid receptor: MVMQFQGLENPIQISPHCSCTPSGFFMEMMSMKPAKGVLTEQVAGPLGQNLEVEPYSQYSNVQFPQVQPQISSSSYYSNLGFYPQQPEEWYSPGIYELRRMPAETLYQGETEVAEMPVTKKPRMGASAGRIKGDELCVVCGDRASGYHYNALTCEGCKGFFRRSITKNAVYKCKNGGNCVMDMYMRRKCQECRLRKCKEMGMLAECMYTGLLTEIQCKSKRLRKNVKQHADQTVNEDSEGRDLRQVTSTTKSCREKTELTPDQQTLLHFIMDSYNKQRMPQEITNKILKEEFSAEENFLILTEMATNHVQVLVEFTKKLPGFQTLDHEDQIALLKGSAVEAMFLRSAEIFNKKLPSGHSDLLEERIRNSGISDEYITPMFSFYKSIGELKMTQEEYALLTAIVILSPDRQYIKDREAVEKLQEPLLDVLQKLCKIHQPENPQHFACLLGRLTELRTFNHHHAEMLMSWRVNDHKFTPLLCEIWDVQ
B2: CAR: Constitutive Androstane Receptor (NR1I3), cDNA driver (protein, UniProt Q14994 1-352, looked up)
Nuclear receptor subfamily 1 …: MASREDELRNCVVCGDQATGYHFNALTCEGCKGFFRRTVSKSIGPTCPFAGSCEVSKTQRRHCPACRLQKCLDAGMRKDMILSAEALALRRAKQAQRRAQQTPVQLSKEQEELIRTLLGAHTRHMGTMFEQFVQFRPPAHLFIHHQPLPTLAPVLPLVTHFADINTFMVLQVIKFTKDLPVFRSLPIEDQISLLKGAAVEICHIVLNTTFCLQTQNFLCGPLRYTIEDGARVSPTVGFQVEFLELLFHFHGTLRKLQLQEPEYVLLAAMALFSPDRPGVTQRDEIDQLQEEMALTLQSYIKGQQRRPRDRFLYAKLLGLLAELRSINEAYGYQIQHIQGLSAMMPLLQEICS
B3: RXRb: Retinoic X Receptor β (NR2B2), cDNA driver (protein, UniProt P28702 1-533, looked up)
Retinoic acid receptor …: MSWAARPPFLPQRHAAGQCGPVGVRKEMHCGVASRWRRRRPWLDPAAAAAAAVAGGEQQTPEPEPGEAGRDGMGDSGRDSRSPDSSSPNPLPQGVPPPSPPGPPLPPSTAPSLGGSGAPPPPPMPPPPLGSPFPVISSSMGSPGLPPPAPPGFSGPVSSPQINSTVSLPGGGSGPPEDVKPPVLGVRGLHCPPPPGGPGAGKRLCAICGDRSSGKHYGVYSCEGCKGFFKRTIRKDLTYSCRDNKDCTVDKRQRNRCQYCRYQKCLATGMKREAVQEERQRGKDKDGDGEGAGGAPEEMPVDRILEAELAVEQKSDQGVEGPGGTGGSGSSPNDPVTNICQAADKQLFTLVEWAKRIPHFSSLPLDDQVILLRAGWNELLIASFSHRSIDVRDGILLATGLHVHRNSAHSAGVGAIFDRVLTELVSKMRDMRMDKTELGCLRAIILFNPDAKGLSNPSEVEVLREKVYASLETYCKQKYPEQQGRFAKLLLRLPALRSIGLKCLEHLFFFKLIGDTPIDTFLMEMLEAPHQLA
B4: PPARd: Peroxisome proliferator activated receptor δ (NR1C2), cDNA driver (protein, UniProt Q03181 1-441, looked up)
Peroxisome …: MEQPQEEAPEVREEEEKEEVAEAEGAPELNGGPQHALPSSSYTDLSRSSSPPSLLDQLQMGCDGASCGSLNMECRVCGDKASGFHYGVHACEGCKGFFRRTIRMKLEYEKCERSCKIQKKNRNKCQYCRFQKCLALGMSHNAIRFGRMPEAEKRKLVAGLTANEGSQYNPQVADLKAFSKHIYNAYLKNFNMTKKKARSILTGKASHTAPFVIHDIETLWQAEKGLVWKQLVNGLPPYKEISVHVFYRCQCTTVETVRELTEFAKSIPSFSSLFLNDQVTLLKYGVHEAIFAMLASIVNKDGLLVANGSGFVTREFLRSLRKPFSDIIEPKFEFAVKFNALELDDSDLALFIAAIILCGDRPGLMNVPRVEAIQDTILRALEFHLQANHPDAQYLFPKLLQKMADLRQLVTEHAQMMQRIKKTETETSLHPLLQEIYKDMY
B5: RXRg: Retinoic X Receptor γ (NR2B3), cDNA driver (protein, UniProt P48443 1-463, looked up)
Retinoic acid receptor …: MYGNYSHFMKFPAGYGGSPGHTGSTSMSPSAALSTGKPMDSHPSYTDTPVSAPRTLSAVGTPLNALGSPYRVITSAMGPPSGALAAPPGINLVAPPSSQLNVVNSVSSSEDIKPLPGLPGIGNMNYPSTSPGSLVKHICAICGDRSSGKHYGVYSCEGCKGFFKRTIRKDLIYTCRDNKDCLIDKRQRNRCQYCRYQKCLVMGMKREAVQEERQRSRERAESEAECATSGHEDMPVERILEAELAVEPKTESYGDMNMENSTNDPVTNICHAADKQLFTLVEWAKRIPHFSDLTLEDQVILLRAGWNELLIASFSHRSVSVQDGILLATGLHVHRSSAHSAGVGSIFDRVLTELVSKMKDMQMDKSELGCLRAIVLFNPDAKGLSNPSEVETLREKVYATLEAYTKQKYPEQPGRFAKLLLRLPALRSIGLKCLEHLFFFKLIGDTPIDTFLMEMLETPLQIT
B6: PXR: Pregnane X Receptor (NR1I2), cDNA driver (protein, UniProt O75469 1-434, looked up)
Nuclear receptor subfamily 1 …: MEVRPKESWNHADFVHCEDTESVPGKPSVNADEEVGGPQICRVCGDKATGYHFNVMTCEGCKGFFRRAMKRNARLRCPFRKGACEITRKTRRQCQACRLRKCLESGMKKEMIMSDEAVEERRALIKRKKSERTGTQPLGVQGLTEEQRMMIRELMDAQMKTFDTTFSHFKNFRLPGVLSSGCELPESLQAPSREEAAKWSQVRKDLCSLKVSLQLRGEDGSVWNYKPPADSGGKEIFSLLPHMADMSTYMFKGIISFAKVISYFRDLPIEDQISLLKGAAFELCQLRFNTVFNAETGTWECGRLSYCLEDTAGGFQQLLLEPMLKFHYMLKKLQLHEEEYVLMQAISLFSPDRPGVLQHRVVDQLQEQFAITLKSYIECNRPQPAHRFLFLKIMAMLTELRSINAQHTQRLLRIQDIHPFATPLMQELFGITGS

test system: mPgc1b promoter; assay: NHR-promoter luciferase screen, mPgc1b promoter; assay type: cell-based, mouse; conditions: PGC1b promoter reporter; co-transfected HR, without or with its ligand
Outline: (§1)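 Luciferase reporter read-out after co-expression in CV-1 cells of V5H6-tagged receptor (alone or with RXR), the promoter construct and LacZ. Values are luciferase/LacZ relative to a control lacking NHR or ligand; orphan receptors tested ligand-free.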

Molecule	Luc. act., normalized to lacZ
B1	7.82
B2	9.21
B3	11.7
B4	7.88
B5	9.0
B6	10.19

same assay, conditions: PGC1b promoter reporter; co-transfected HR, without or with its ligand; relative to control

Molecule	Normalized Luc. act., normalized to control
B1	0.7
B2	0.8
B3	1.0
B4	0.7
B5	0.8
B6	0.9

same assay, conditions: mPgc1b promoter-luciferase, CV-1 cells, NHR +/- ligand, control = 1.00

Molecule	luciferase activity normalized to lacZ activity and to a control, mPgc1b
B1	0.66
B2	0.78
B3	0.99
B4	0.67
B5	0.76
B6	0.86

test system: mDio2 promoter; assay: NHR-promoter luciferase screen, mDio2 promoter; assay type: cell-based, mouse; conditions: Dio2; HR component without or with its ligand
Outline: (§2)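 CV-1 cells were co-transfected with 50 ng NHR (homodimer or NHR/RXR heterodimer), 100 ng promoter-luciferase construct and 50 ng LacZ. Luciferase was normalized to LacZ and to a no-NHR/no-ligand control.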

Molecule	Luc. act., normalized to lacZ	Normalized Luc. act., normalized to control
B1	20.2	1.3
B2	18.4	1.2
B3	22.8	1.5
B4	19.1	1.2
B5	27.8	1.8
B6	32.7	2.1

same assay, conditions: transcription factor +/- ligand; control = 1.00

Molecule	mDio2 promoter reporter activity
B1	1.29
B2	1.17
B3	1.45
B4	1.21
B5	1.77
B6	2.08

test system: mDio1 promoter; assay: NHR-promoter luciferase screen, mDio1 promoter; assay type: cell-based, mouse; conditions: Dio1; HR component without or with its ligand
Outline: as §2

Molecule	Luc. act., normalized to lacZ	Normalized Luc. act., normalized to control
B1	7.2	1.6
B2	4.5	1.0
B3	4.4	1.0
B4	10.0	2.2
B5	6.6	1.5
B6	11.3	2.5

same assay, conditions: transcription factor +/- ligand; control = 1.00

Molecule	mDio1 promoter reporter activity
B1	1.62
B2	1.01
B3	0.99
B4	2.23
B5	1.48
B6	2.52

test system: hCYP3A4 promoter; assay: NHR-promoter luciferase screen, hCYP3A4 promoter; assay type: cell-based, human; conditions: CYP3A4 promoter; HR/ligand component
Outline: as §1

Molecule	Luc. act., normalized to lacZ	Normalized Luc. act., normalized to control
B1	4.2	0.9
B2	3.1	0.7
B3	0.3	0.1
B4	5.0	1.1
B5	0.9	0.2
B6	8.8	2.0

same assay, conditions: transcription factor +/- ligand; control = 1.00

Molecule	hCYP3A4 promoter reporter activity
B1	0.93
B2	0.70
B3	0.06
B4	1.12
B5	0.19
B6	1.98

test system: MCP-1 promoter; assay: NHR-promoter luciferase screen, MCP-1 promoter; assay type: cell-based; conditions: MCP-1 promoter reporter; HR without or with its ligand; relative to control
Outline: as §2

Molecule	Normalized Luc. act., normalized to control
B1	1.2
B2	1.1
B3	0.0
B4	1.8
B5	2.0
B6	2.0

same assay, conditions: MCP-1 promoter reporter; hormone receptor (HR) without or with its ligand

Molecule	Luc. act., normalized to lacZ
B1	124.1
B2	115.7
B4	190.4
B5	212.4
B6	209.7

same assay, conditions: transcription factor +/- ligand; control = 1.00

Molecule	mMCP-1 promoter reporter activity
B1	1.16
B2	1.08
B3	0.00
B4	1.78
B5	1.98
B6	1.96

test system: mABCA1 promoter; assay: NHR-promoter luciferase screen, mABCA1 promoter; assay type: cell-based, mouse; conditions: ABCA1 promoter; hormone receptor with or without its ligand
Outline: as §2

Molecule	Luc. act., normalized to lacZ
B1	14.0
B2	6.1
B3	11.1
B4	13.8
B5	18.3
B6	15.2

same assay, conditions: ABCA1 promoter; hormone receptor with or without its ligand; relative to control

Molecule	Normalized Luc. act., normalized to control
B1	2.5
B2	1.1
B3	2.0
B4	2.5
B5	3.3
B6	2.7

same assay, conditions: transcription factor +/- ligand; control = 1.00

Molecule	mABCA1 promoter reporter activity
B1	2.50
B2	1.08
B3	1.97
B4	2.46
B5	3.26
B6	2.72
